Here are results for one molecule from patent US11287428B2, “PD1 and PDL-1 expression during progression from myelodysplastic syndrome to acute myelogenous leukemia” (H. Lee Moffitt Cancer Center and Research Institute, Inc., priority 2016, dated 2022).

What all share (type): cell-based, human
The subject of one experiment is CD71 cells. The experiment in a line: Active caspase 3 staining of BM cells cultured with S100A9. As to conditions: BM cells cultured with S100A9, 48 h. The method, then:
(§1) FIG. 21. Increased the expression of PD-1 and PD-L1 induced cell death. One and half million of BM cells from Healthy donor were placed per well in 24-well plate, cultured with IgG or S100A9. After 48 h, cells were collected and stained for cell surface with antibodies: anti-CD33-PE-Cy7, anti-CD34-Percp-Cy5.5, anti-CD14-BV510, anti-CD71-BV421, anti-CD38-BV711, and anti-CD235a-BUV395, then cells were fixed/permeabilized and stained with anti-active caspase 3-PE according to manufacturer's protocol (BD Biosciences). Near infrared live/dead dye was used for distinction of live or dead cells. Flow acquisitions were performed using LSR II cytometer and analysis was done using live cells with flowjo. (A) PD-L1 expression on CD14+/CD33+: cells positive for PD-L1 surface expression were calculated based on FMO gate setting. (B) and (C). PD-1 expression on progenitors by S100A9 or PT plasma, respectively: Positive PD-1 surface expression on CD14−/CD33−/CD71−/CD34+/CD38+ progenitors was determined using FMO gates. HD—healthy donor (n=6), MDS—myelodysplastic syndrome (n=10). Significance was determined using two-tailed unpaired t test with Welch's correction: *P<0.05, **P<0.01, ***P<0.001, error bars indicate mean±SEM.

For a further experiment, the system named is C-Myc. The experiment in a line: C-Myc and p-stat3 induction in HD BM cells cultured with S100A9. As to conditions: HD BM cultured with S100A9 for 48 h. The method, then: FIG. 23. […] Right panel, HD BM cells 48 h treatment.
Experiment [1] concerns CD33+, CD34+, and CD71+ cells. Nature of the experiment: Culture of BM cells with S100A9, PD-1 surface expression by flow cytometry. As to conditions: for PD-1 expression on CD34+ cells / PD-1 expression on CD71+ cells: BM cells cultured with S100A9, 48 h. The method, then: FIGS. 6A and 6B. Culture of BM cells with rhS100A9 can induce the expression of PD1 on CD33+.
FIG. 7. Culture of BM cells with rhS100A9 can induce the expression of PD1 on CD34+.
FIG. 8. Culture of BM cells with rhS100A9 can induce the expression of PD1 on CD71+.
as §1, with “FIGS. 20A-20C. […]” for “FIG. 21. Increased the expression of PD-1 and PD-L1 induced cell death.”, “stained” for “stained for cell surface”, “anti-CD38-BV711, anti-CD235a-BUV395, anti-PD-1-FITC” for “anti-CD38-BV711,”, “anti-PD-L1-APC.” for “anti-CD235a-BUV395, then cells were fixed/permeabilized and stained with anti-active caspase 3-PE according to manufacturer's protocol (BD Biosciences).”, “(C)” for “(C).”, “respectively.” for “respectively:”
For orientation: Flow cytometry measures light scatter and fluorescence of single cells or particles in a stream.

The test system of the next experiment is CD33+CD14+ cells. The experiment in a line: Culture of BM cells with S100A9, PD-L1 surface expression by flow cytometry. Particulars: BM cells cultured with S100A9, 48 h. The protocol:
FIG. 5. Culture of BM cells with rhS100A9 can induce the expression of PDL1 on CD33+CD14+.
as §1, with “FIGS. 20A-20C. […]” for “FIG. 21. Increased the expression of PD-1 and PD-L1 induced cell death.”, “stained” for “stained for cell surface”, “anti-CD38-BV711, anti-CD235a-BUV395, anti-PD-1-FITC” for “anti-CD38-BV711,”, “anti-PD-L1-APC.” for “anti-CD235a-BUV395, then cells were fixed/permeabilized and stained with anti-active caspase 3-PE according to manufacturer's protocol (BD Biosciences).”, “(C)” for “(C).”, “respectively.” for “respectively:”

Where [2] appears, read: listed as recombinant human S100A9.

B1: S100A9: recombinant human S100A9 protein used to treat BM cells (protein, UniProt P06702 1-114, looked up)
Protein S100-A9: MTCKMSQLERNIETIINTFHQYSVKLGHPDTLNQGEFKELVRKDLQNFLKKENKNEKVIEHIMEDLDTNADKQLSFEEFIMLMARLTWASHEKMHEGDEGPGHHHKPGLGEGTP
Take B1: in the experiment with CD71 cells, the “active caspase 3 in CD71 cells” value was “increase active caspase 3”. In addition, the C-Myc expression result with C-Myc was “induced C-Myc expression”. Further, the p-stat3 result in the experiment on C-Myc is listed as “induced p-stat3”. Besides, the “PD-1 expression on CD34+ cells” value is reported as “directly induced” in experiment [1] and “induces PD1” in experiment [1] (setting [2]). Besides, the “PD-1 expression on CD71+ cells” value was “directly induced” in experiment [1] and “induces PD1” in experiment [1] (setting [2]). Also, the “PD-1 expression on CD33+ cells” value in experiment [1] (BM cells cultured with rhS100A9) is recorded as “induces PD1”. The “PD-L1 expression on CD33+CD14+ cells” value was “directly induced the expression of PD-L1” in the experiment on CD33+CD14+ cells and “induces PDL1 expression” in the experiment on CD33+CD14+ cells (setting [2]).
